From patent US20180028658A1

How the values were obtained:
[1] = molecular target: HIV-1 Yu2 gp160 (Env) expressed on the 293T cell surface (HIV-1 Yu2) (UniProt P35961); experiment: flow cytometry, 293T cells transfected with Yu2 gp160, primary antibody 10 µg/ml
[2] = molecular target: full-length gp120 monomer (HIV-1 (Yu2 by the materials, not named in the results)) (UniProt P35961); experiment: SPR (BIAcore), Env protein immobilized on CM5 chip, antibody as analyte
[3] = molecular target: HIV-1 gp41 (strain not stated) (HIV-1); experiment: method not given
[4] = molecular target: BG505 SOSIP.664 gp140 trimer (HIV-1 BG505); experiment: method not given
[5] = molecular target: full-length gp120 monomer (HIV-1 (Yu2 by the materials, not named in the results)) (UniProt P35961); experiment: method not given
[6] = molecular target: BG505 SOSIP.664 gp140 trimer (HIV-1 BG505); experiment: ELISA on coated BG505 SOSIP.664 gp140 trimer, OD at 405 nm, 1x PBS as blank
[7] = molecular target: SF162 gp140 trimer (HIV-1 SF162) (UniProt P19550); experiment: ELISA on coated SF162 gp140 trimer, OD at 405 nm, 1x PBS as blank
[8] = molecular target: full-length gp120 monomer (HIV-1 (Yu2 by the materials, not named in the results)) (UniProt P35961); experiment: ELISA on coated full-length gp120 monomer, OD at 405 nm, 1x PBS as blank
[9] = molecular target: HIV-1 gp41 (strain not stated) (HIV-1); experiment: SPR (BIAcore), Env protein immobilized on CM5 chip, antibody as analyte
[10] = molecular target: Recombinant HIV-1 gp41MN (HIV-1 MN) (UniProt P05877); experiment: ELISA on coated gp41 (HIV-1 MN per the example), OD at 405 nm

SF162 gp140 trimer (HIV-1 SF162), sequence (P19550 32-675 limits assumed): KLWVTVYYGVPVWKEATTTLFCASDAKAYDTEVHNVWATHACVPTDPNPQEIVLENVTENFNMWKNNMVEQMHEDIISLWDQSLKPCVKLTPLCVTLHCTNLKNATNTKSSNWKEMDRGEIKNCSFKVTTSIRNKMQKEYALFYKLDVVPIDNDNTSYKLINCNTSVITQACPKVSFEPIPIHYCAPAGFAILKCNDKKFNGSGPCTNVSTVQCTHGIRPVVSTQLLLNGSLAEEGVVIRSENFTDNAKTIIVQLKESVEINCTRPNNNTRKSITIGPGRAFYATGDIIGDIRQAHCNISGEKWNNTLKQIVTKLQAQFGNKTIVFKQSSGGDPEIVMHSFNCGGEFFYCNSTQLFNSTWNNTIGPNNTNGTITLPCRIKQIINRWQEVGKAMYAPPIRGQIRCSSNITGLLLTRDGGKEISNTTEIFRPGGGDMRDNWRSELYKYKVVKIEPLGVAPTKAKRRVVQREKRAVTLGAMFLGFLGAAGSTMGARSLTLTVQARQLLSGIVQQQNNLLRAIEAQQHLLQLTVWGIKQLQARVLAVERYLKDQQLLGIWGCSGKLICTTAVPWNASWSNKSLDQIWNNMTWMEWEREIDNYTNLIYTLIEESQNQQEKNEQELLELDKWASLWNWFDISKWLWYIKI

Row | Substance | Percentage of recognition of HIV-1 Env [1] [%] | other results
1 | HIV-1 MAb PG16 (antibody) | 1.5 | 
2 | HIV-1 gp41 Monoclonal (126-7) (antibody) | 3.2 | 
3 | HIV-1 gp120 MAb (39F) (antibody) | 2.6 | 
4 | HIV-1 gp120 Monoclonal Antibody (17b) | 1.5 | Kd [2]: 0.982 nM; koff [2]: 2.59e-06 s⁻¹
5 | HIV-1 anti-gp41 mAb (7H6) (antibody) | 19.8 | 
6 | Monoclonal Antibodies to HIV-1 V3 (268) (antibody) | 2.1 | 
7 | HIV-1 gp41 Monoclonal Antibody (50-69) | 4.5 | 
8 | NIH45-46 (antibody) |  | Kd [3]: 1 nM; Kd [4]: 0.1 nM; Kd [5]: 0.1 nM; EC50 (read off the curve) [6]: 0.02 µg/mL; EC50 (read off the curve) [7]: 0.2 µg/mL
9 | HIV 1 V3 Monoclonal Antibody (2191) | 2.9 | 
10 | HIV-1 gp120 Monoclonal Antibody (IgG1 b12) | 9.8 | 
11 | HIV-1 gp120 Monoclonal Antibody (F425 B4e8) | 6.4 | 
12 | HIV-1 gp120 MAb (VRC01) (antibody) | 6 | EC50 (read off the curve) [6]: 0.03 µg/mL; EC50 (read off the curve) [7]: 0.05 µg/mL; EC50 (read off the curve) [8]: 0.3 µg/mL
13 | HIV-1 gp41 Monoclonal (98-6) (antibody) | 3.5 | 
14 | HIV-1 gp120 Monoclonal Antibody (48d) | 3.1 | 
15 | HIV 1 gp41 Monoclonal Antibody (167-7, 67-D IV) | 11.8 | 
16 | HIV-1 gp41 Monoclonal Antibody (F240) | 3.5 | 
17 | HIV 1 V3 Monoclonal Antibody (3869) | 2.6 | 

Row | Substance | Percentage of recognition of HIV-1 Env [1] [%] | other results
18 | HIV 1 V3 Monoclonal Antibody (3074) | 3.4 | 
19 | HIV-1 anti-gp41 mAb (10E8) (antibody) | 11.7 | Kd [9]: 15.5 nM; koff [9]: 0.000901 s⁻¹
20 | HIV-1 MAb PG9 (antibody) | 6 | 
21 | HIV 1 V3 Monoclonal Antibody (2219) | 3.1 | 
22 | HIV-1 V2V3 Monoclonal Antibody (2909) | 5.6 | 
23 | HIV-1 gp120 MAb (A32) (antibody) | 79.2 | 
24 | HIV 1 V3 Monoclonal Antibody (2442) | 6.6 | 
25 | HIV-1 gp120 MAb (VRC03) (antibody) | 6.4 | 
26 | HIV-1 gp41 MAb (IgG1 Z13e1) (antibody) | 5.2 | 
27 | HIV-1 gp41 Monoclonal Antibody (5F3) | 6.4 | 
28 | HIV-1 gp120 MAb (HJ16) (antibody) | 17.6 | 
29 | HIV-1 gp120 Monoclonal Antibody (F105) | 4.5 | 
30 | HIV-1 gp120 Monoclonal Antibody (F425 B4a1) | 2.5 | 
31 | HIV-1 gp120 Monoclonal (2G12) (antibody) | 22.8 | 
32 | HIV-1 gp41 Monoclonal Antibody (2F5) | 9.9 | EC50 (read off the curve) [10]: 0.03 µg/mL
33 | HIV-1 gp41 Monoclonal Antibody (4E10) | 13.4 | EC50 (read off the curve) [10]: 0.03 µg/mL; Kd [9]: 10.8 nM; koff [9]: 2.14e-05 s⁻¹; kon [9]: 1980 M⁻¹ s⁻¹
